From patent US20160340412A1

Target: C3
Assay: analytical ultracentrifugation; self-association (dimer)

C3
Kd: 188 µM
